Data from patent US9168297B2, “Regulation of skin pigmentation by neuregulin-1 (NRG-1)” (The United States of America, as Represented by the …, priority 2010, dated 2015).

Experiments:
Format in all cases: cell-based, human
HEM-LP melanocytes = experiment: Melanin content assay (melanin/protein); settings: NRG-1 50 ng/ml
Protocol: (§1) FIGS. 6A and 6B are bar graphs illustrating the effect of NRG-1 on the pigmentation of cultured human melanocytes. FIG. 6A) Lightly-pigmented (HEM-LP) and FIG. 6B) Darkly-pigmented (HEM-DP) melanocytes were treated with or without NRG-1 (50 ng/ml) for 1, 3, 5 or 9 days and proteins were extracted from each sample. After centrifugation at 10,000 g for 15 minutes, precipitates were analyzed for melanin content, and the supernatants were analyzed for protein content. Results are the average of three studies±SD; statistically significant differences are indicated.
(§2) Melanin contents were determined by dissolving cell pellets overnight at room temperature in 200 μl 1 N NaOH, and melanin concentrations were quantitated by absorbance at 405 nm in a SpectraMax 250 ELISA reader (Molecular Devices) using a standard curve generated from synthetic melanin (Sigma-Aldrich, St. Louis, Mo.). Melanin content is expressed as μg melanin per μg protein. Each study was repeated at least three times.
(§3) The effects of NRG-1 on the pigmentation of human melanocytes were also examined. […] However, on day 9, when the cells had reached confluence, the pigmentation level of NRG-1-treated HEM-LP melanocytes was about 35% higher than the control (FIG. 6A).

HEM-DP melanocytes = experiment: Melanin content assay (melanin/protein); settings: NRG-1 50 ng/ml
Protocol: as §1
FIGS. 9A and 9B are digital images illustrating the effect of pan-ERBB inhibitors on NRG-1 action on human melanocytes and MelanoDerms. FIG. 9A) HEM-DP melanocytes were treated for 9 days with 50 ng/ml NRG-1 in the presence of C39 (0.5 μM) or CI-1033 (2 μM) or vehicle (DMSO) alone. The results are the averages of 3 independent studies±SD. FIG. 9B) Dark MelanoDerms were treated for 9 days with 50 ng/ml NRG-1 in the presence of C39 (0.5 μM) or CI-1033 (2 μM) or vehicle (DMSO) alone. L values shown are the average of 3 spots measured in the center of each Melanoderm.
as §2, §3
The EGF domain of NRG-1 can activate the NRG-1 receptors. Two exemplary EGF domains of NRG-1 were aligned (SEQ ID NOs: 9 and 10) and 5 different […] peptides within these two sequences were designed (FIG. 12). Darkly-pigmented human epidermal melanocytes (HEM-DP) were treated with each of the […] peptides (100 nM) or the commercially available rhNRG-1 (6.25 nM) or the vehicle only (0.1% BSA in PBS) every other day for 7 days.
In particular, HEM-DP were treated with each of the 8-mer peptides (WC-6, […], amino acids 3-10 of SEQ ID NO: 10; WC-7, […], amino acids 8-15 of SEQ ID NO: 10; WC-8, […], amino acids 12-19 of SEQ ID NO: 10; WC-9, […], amino acids 16-23 of SEQ ID NO: 10; WC-10, […], amino acids 20-27 of SEQ ID NO: 10; 100 nM) or the full length EGF domain of NRG-1 (WC-11, SEQ ID NO: 10, 100 nM) or the commercially available rhNRG-1 (SEQ ID NO: 11, 6.25 nM) or vehicle only (0.1% BSA in PBS) every day for 9 days.

ERBB2 mRNA = ERBB2 mRNA level by RT-PCR in melanocytes; settings: HEM-LP and HEM-DP, NRG-1 50 ng/ml, 1 day, vs controls
Protocol: FIGS. 8A and 8B are digital images illustrating the mechanism of ERBB2 abrogation after NRG-1 treatment. FIG. 8A) ERBB2 mRNA levels in HEM-LP and in HEM-DP melanocytes were detected by RT-PCR after treatment with or without NRG-1 (50 ng/ml) for 1 day. FIG. 8B) MG132 (120 nM) was added to the melanocyte culture medium to inhibit proteasomal degradation during treatment of HEM-LP and HEM-DP melanocytes with or without NRG-1 (50 ng/ml). Proteins were extracted for each sample, and ERBB2 levels were detected by western blotting. Results are representative of three studies.
Total RNAs were isolated from cells using an RNeasy mini kit (Qiagen, Valencia, Calif.), and 500 ng RNA of each sample was used for reverse transcription. […]
Whether the decrease in ERBB2 level elicited by NRG-1 was due to transcriptional regulation or to proteasomal degradation was further explored. When ERBB2 mRNA levels were measured after 1 day of treatment with NRG-1, NRG-1 treated cells and controls were similar both for HEM-LP and for HEM-DP melanocytes (FIG. 8A) despite the marked decrease in ERBB2 protein expression noted above.

B1: NRG-1: commercially available recombinant human neuregulin-1 (rhNRG-1-β1, R&D Systems), SEQ ID NO: 11 (protein)
chain: TSHLVKCAEKEKTFCVNGGECFMVKDLSNPSRYLCKCPNEFTGDRCQNYVMASFYKHLGIEFMEAEELYQK
- Pigmentation level higher than the control (HEM-LP melanocytes; day 9, confluent): about 35%
- Level of pigmentation (melanin/protein) (HEM-LP melanocytes; days 1 through 5, subconfluent, vs control): not significantly different
- Melanin content, NRG-1 alone (HEM-DP melanocytes; 9 days, vehicle DMSO): stimulated melanin content
- Pigmentation level (HEM-DP melanocytes; day 9, vs controls): remained higher
- Pigmentation level (HEM-DP melanocytes; starting at day 5, subconfluent, vs controls): higher than the controls
- ERBB2 mRNA levels (ERBB2 mRNA): similar
